The source of these data is article PMC3237733.

The target of the assay is dansylated-FadAc (Fusobacterium nucleatum 12230) (UniProt Q5I6B0). Put plainly: other fluorescence titration.

B1: GST-VE-cadherin_(415–534) (domain or fragment)
chain: KGQFFRVTKKGDIYNEKELDREVYPWYNLTVEAKELDSTGTPTGKESIVQVHIEVLDENDNAPEFAKPYQPKVCENAVHGQLVLQISAIDKDITPRNVKFKFILNTENNFTLTDNHDNTA
The term Kd denotes the constant that tells how readily two partners part at equilibrium. In the case of B1, the Kd was found to be 15.9 µM.
